T1: FcγRIIa(R) extracellular domain with C-terminal His tag (human, UniProt P12318 34-217)
T1 construct: extracellular domain; R131 allotype; also called 2aR; CD32
T1 sequence: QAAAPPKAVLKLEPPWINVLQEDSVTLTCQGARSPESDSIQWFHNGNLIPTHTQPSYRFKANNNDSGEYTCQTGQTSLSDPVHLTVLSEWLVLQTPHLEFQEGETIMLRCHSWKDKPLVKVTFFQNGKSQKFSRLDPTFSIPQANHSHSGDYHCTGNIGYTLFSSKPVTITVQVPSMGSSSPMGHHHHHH

T2: FcγRIIa(H) extracellular domain with C-terminal His tag (human, UniProt P12318 34-217)
T2 construct: extracellular domain; H131 allotype; also called 2aH; CD32
T2 sequence: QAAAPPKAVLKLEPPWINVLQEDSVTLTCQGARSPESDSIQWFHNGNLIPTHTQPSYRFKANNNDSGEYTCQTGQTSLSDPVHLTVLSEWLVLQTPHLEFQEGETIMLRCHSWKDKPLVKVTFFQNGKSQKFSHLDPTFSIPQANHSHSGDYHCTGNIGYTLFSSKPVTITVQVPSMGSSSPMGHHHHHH

T3: FcγRIIb extracellular domain with C-terminal His tag (human, UniProt P31994 43-217)
T3 construct: extracellular domain; also called 2b; CD32
T3 sequence: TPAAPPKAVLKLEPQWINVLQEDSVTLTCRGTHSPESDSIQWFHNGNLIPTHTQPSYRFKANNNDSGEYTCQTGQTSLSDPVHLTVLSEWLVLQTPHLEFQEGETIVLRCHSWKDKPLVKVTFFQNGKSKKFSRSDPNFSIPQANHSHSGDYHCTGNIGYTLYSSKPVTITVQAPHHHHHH


Tests used:
Experiment in all cases: SPR; % of GpH7-A5/GpH7-B3/GpL16-k0
[1] = biological target: T4, FcγRIa extracellular domain with C-terminal His tag (human, UniProt P12314 16-292)
T4 construct: extracellular domain; also called 1a; CD64
T4 sequence (P12314 other isoform, or with tags, fused parts or gaps): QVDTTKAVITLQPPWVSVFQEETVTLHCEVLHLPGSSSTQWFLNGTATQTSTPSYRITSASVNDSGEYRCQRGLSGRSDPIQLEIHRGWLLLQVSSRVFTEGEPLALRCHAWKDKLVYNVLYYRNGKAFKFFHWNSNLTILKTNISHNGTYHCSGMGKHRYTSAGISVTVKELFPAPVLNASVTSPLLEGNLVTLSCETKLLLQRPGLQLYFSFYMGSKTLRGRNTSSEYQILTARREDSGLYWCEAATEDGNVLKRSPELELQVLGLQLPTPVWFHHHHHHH

[2] = biological target: T1, FcγRIIa(R) extracellular domain with …
[3] = biological target: T2, FcγRIIa(H) extracellular domain with …
[4] = biological target: T3, FcγRIIb extracellular domain with …
[5] = biological target: T5, FcγRIIIa extracellular domain with C-terminal His tag (human, UniProt P08637 17-208)
T5 construct: extracellular domain; also called 3a; CD16
T5 sequence (P08637 other isoform, or with tags, fused parts or gaps): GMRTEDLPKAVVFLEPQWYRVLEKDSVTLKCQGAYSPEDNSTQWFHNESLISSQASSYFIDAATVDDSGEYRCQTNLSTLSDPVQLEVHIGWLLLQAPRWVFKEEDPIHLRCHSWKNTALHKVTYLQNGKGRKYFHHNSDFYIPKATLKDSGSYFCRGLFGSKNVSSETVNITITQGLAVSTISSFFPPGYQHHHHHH

Row | Binder | He/Con 1a [1] [%] | He/Con 2aR [2] [%] | He/Con 2aH [3] [%] | He/Con 2b [4] [%] | He/Con 3a [5] [%]
1 | GpH7-A5/GpH7-B3 variant I332_14T/GpL16-k0 (antibody, human IgG1, kappa, heterodimerized IgG1 (He Ab), mutation in one H chain only; also called He Ab) heavy 1: not shown heavy 2: not shown light: DIVMTQSPLSLPVTPGEPASISCQASESLVHSNRNTYLHWYLQKPGQSPQLLIYKVSNRFSGVPDRFSGSGSGTDFTLKISRVEAEDVGVYYCSQNTHVPPTFGQGTKVEIERTVAAPSVFIFPPSDEQLKSGTASVVCLLNNFYPREAKVQWKVDNALQSGNSQESVTEQDSKDSTYSLSSTLTLSKADYEKHKVYACEVTHQGLSSPVTKSFNRGEC | 104 | 104 | 119 | 118 | 110
2 | GpH7-A5/GpH7-B3 variant I332_15Y/GpL16-k0 (antibody, human IgG1, kappa, heterodimerized IgG1 (He Ab), mutation in one H chain only; also called He Ab) heavy 1: not shown heavy 2: not shown light: DIVMTQSPLSLPVTPGEPASISCQASESLVHSNRNTYLHWYLQKPGQSPQLLIYKVSNRFSGVPDRFSGSGSGTDFTLKISRVEAEDVGVYYCSQNTHVPPTFGQGTKVEIERTVAAPSVFIFPPSDEQLKSGTASVVCLLNNFYPREAKVQWKVDNALQSGNSQESVTEQDSKDSTYSLSSTLTLSKADYEKHKVYACEVTHQGLSSPVTKSFNRGEC | 101 | 109 | 119 | 112 | 92.4
3 | GpH7-A5/GpH7-B3 variant I332_19Q/GpL16-k0 (antibody, human IgG1, kappa, heterodimerized IgG1 (He Ab), mutation in one H chain only; also called He Ab) heavy 1: not shown heavy 2: not shown light: DIVMTQSPLSLPVTPGEPASISCQASESLVHSNRNTYLHWYLQKPGQSPQLLIYKVSNRFSGVPDRFSGSGSGTDFTLKISRVEAEDVGVYYCSQNTHVPPTFGQGTKVEIERTVAAPSVFIFPPSDEQLKSGTASVVCLLNNFYPREAKVQWKVDNALQSGNSQESVTEQDSKDSTYSLSSTLTLSKADYEKHKVYACEVTHQGLSSPVTKSFNRGEC | 103 | 95.1 | 112 | 104 | 101
4 | GpH7-A5/GpH7-B3 variant I336_02A/GpL16-k0 (antibody, human IgG1, kappa, heterodimerized IgG1 (He Ab), mutation in one H chain only; also called He Ab) heavy 1: not shown heavy 2: not shown light: DIVMTQSPLSLPVTPGEPASISCQASESLVHSNRNTYLHWYLQKPGQSPQLLIYKVSNRFSGVPDRFSGSGSGTDFTLKISRVEAEDVGVYYCSQNTHVPPTFGQGTKVEIERTVAAPSVFIFPPSDEQLKSGTASVVCLLNNFYPREAKVQWKVDNALQSGNSQESVTEQDSKDSTYSLSSTLTLSKADYEKHKVYACEVTHQGLSSPVTKSFNRGEC | 109 | 100 | 102 | 92.8 | 106
5 | GpH7-A5/GpH7-B3 variant I336_01G/GpL16-k0 (antibody, human IgG1, kappa, heterodimerized IgG1 (He Ab), mutation in one H chain only; also called He Ab) heavy 1: not shown heavy 2: not shown light: DIVMTQSPLSLPVTPGEPASISCQASESLVHSNRNTYLHWYLQKPGQSPQLLIYKVSNRFSGVPDRFSGSGSGTDFTLKISRVEAEDVGVYYCSQNTHVPPTFGQGTKVEIERTVAAPSVFIFPPSDEQLKSGTASVVCLLNNFYPREAKVQWKVDNALQSGNSQESVTEQDSKDSTYSLSSTLTLSKADYEKHKVYACEVTHQGLSSPVTKSFNRGEC | 112 | 104 | 100 | 98.4 | 94.6
6 | GpH7-A5/GpH7-B3 variant I332_16H/GpL16-k0 (antibody, human IgG1, kappa, heterodimerized IgG1 (He Ab), mutation in one H chain only; also called He Ab) heavy 1: not shown heavy 2: not shown light: DIVMTQSPLSLPVTPGEPASISCQASESLVHSNRNTYLHWYLQKPGQSPQLLIYKVSNRFSGVPDRFSGSGSGTDFTLKISRVEAEDVGVYYCSQNTHVPPTFGQGTKVEIERTVAAPSVFIFPPSDEQLKSGTASVVCLLNNFYPREAKVQWKVDNALQSGNSQESVTEQDSKDSTYSLSSTLTLSKADYEKHKVYACEVTHQGLSSPVTKSFNRGEC | 100 | 97.6 | 113 | 103 | 89
7 | GpH7-A5/GpH7-B3 variant I332_20W/GpL16-k0 (antibody, human IgG1, kappa, heterodimerized IgG1 (He Ab), mutation in one H chain only; also called He Ab) heavy 1: not shown heavy 2: not shown light: DIVMTQSPLSLPVTPGEPASISCQASESLVHSNRNTYLHWYLQKPGQSPQLLIYKVSNRFSGVPDRFSGSGSGTDFTLKISRVEAEDVGVYYCSQNTHVPPTFGQGTKVEIERTVAAPSVFIFPPSDEQLKSGTASVVCLLNNFYPREAKVQWKVDNALQSGNSQESVTEQDSKDSTYSLSSTLTLSKADYEKHKVYACEVTHQGLSSPVTKSFNRGEC | 104 | 117 | 115 | 102 | 116
8 | GpH7-A5/GpH7-B3 variant I332_18N/GpL16-k0 (antibody, human IgG1, kappa, heterodimerized IgG1 (He Ab), mutation in one H chain only; also called He Ab) heavy 1: not shown heavy 2: not shown light: DIVMTQSPLSLPVTPGEPASISCQASESLVHSNRNTYLHWYLQKPGQSPQLLIYKVSNRFSGVPDRFSGSGSGTDFTLKISRVEAEDVGVYYCSQNTHVPPTFGQGTKVEIERTVAAPSVFIFPPSDEQLKSGTASVVCLLNNFYPREAKVQWKVDNALQSGNSQESVTEQDSKDSTYSLSSTLTLSKADYEKHKVYACEVTHQGLSSPVTKSFNRGEC | 99.3 | 98.3 | 114 | 99.6 | 84.9

The remaining lines, values ahead:

Row | He/Con 1a [1] [%] | He/Con 2aR [2] [%] | He/Con 2aH [3] [%] | He/Con 2b [4] [%] | He/Con 3a [5] [%] | Binder
9 | 107 | 104 | 100 | 101 | 102 | GpH7-A5/GpH7-B3 variant I336_09D/GpL16-k0 (antibody, human IgG1, kappa, heterodimerized IgG1 (He Ab), mutation in one H chain only; also called He Ab) heavy 1: not shown heavy 2: not shown light: DIVMTQSPLSLPVTPGEPASISCQASESLVHSNRNTYLHWYLQKPGQSPQLLIYKVSNRFSGVPDRFSGSGSGTDFTLKISRVEAEDVGVYYCSQNTHVPPTFGQGTKVEIERTVAAPSVFIFPPSDEQLKSGTASVVCLLNNFYPREAKVQWKVDNALQSGNSQESVTEQDSKDSTYSLSSTLTLSKADYEKHKVYACEVTHQGLSSPVTKSFNRGEC
10 | 111 | 104 | 105 | 98.2 | 114 | GpH7-A5/GpH7-B3 variant I336_10E/GpL16-k0 (antibody, human IgG1, kappa, heterodimerized IgG1 (He Ab), mutation in one H chain only; also called He Ab) heavy 1: not shown heavy 2: not shown light: DIVMTQSPLSLPVTPGEPASISCQASESLVHSNRNTYLHWYLQKPGQSPQLLIYKVSNRFSGVPDRFSGSGSGTDFTLKISRVEAEDVGVYYCSQNTHVPPTFGQGTKVEIERTVAAPSVFIFPPSDEQLKSGTASVVCLLNNFYPREAKVQWKVDNALQSGNSQESVTEQDSKDSTYSLSSTLTLSKADYEKHKVYACEVTHQGLSSPVTKSFNRGEC
11 | 109 | 104 | 103 | 98.7 | 94.4 | GpH7-A5/GpH7-B3 variant I336_11K/GpL16-k0 (antibody, human IgG1, kappa, heterodimerized IgG1 (He Ab), mutation in one H chain only; also called He Ab) heavy 1: not shown heavy 2: not shown light: DIVMTQSPLSLPVTPGEPASISCQASESLVHSNRNTYLHWYLQKPGQSPQLLIYKVSNRFSGVPDRFSGSGSGTDFTLKISRVEAEDVGVYYCSQNTHVPPTFGQGTKVEIERTVAAPSVFIFPPSDEQLKSGTASVVCLLNNFYPREAKVQWKVDNALQSGNSQESVTEQDSKDSTYSLSSTLTLSKADYEKHKVYACEVTHQGLSSPVTKSFNRGEC
12 | 112 | 112 | 110 | 111 | 104 | GpH7-A5/GpH7-B3 variant I336_06M/GpL16-k0 (antibody, human IgG1, kappa, heterodimerized IgG1 (He Ab), mutation in one H chain only; also called He Ab) heavy 1: not shown heavy 2: not shown light: DIVMTQSPLSLPVTPGEPASISCQASESLVHSNRNTYLHWYLQKPGQSPQLLIYKVSNRFSGVPDRFSGSGSGTDFTLKISRVEAEDVGVYYCSQNTHVPPTFGQGTKVEIERTVAAPSVFIFPPSDEQLKSGTASVVCLLNNFYPREAKVQWKVDNALQSGNSQESVTEQDSKDSTYSLSSTLTLSKADYEKHKVYACEVTHQGLSSPVTKSFNRGEC
13 | 109 | 105 | 98.3 | 99.6 | 93.2 | GpH7-A5/GpH7-B3 variant I336_04F/GpL16-k0 (antibody, human IgG1, kappa, heterodimerized IgG1 (He Ab), mutation in one H chain only; also called He Ab) heavy 1: not shown heavy 2: not shown light: DIVMTQSPLSLPVTPGEPASISCQASESLVHSNRNTYLHWYLQKPGQSPQLLIYKVSNRFSGVPDRFSGSGSGTDFTLKISRVEAEDVGVYYCSQNTHVPPTFGQGTKVEIERTVAAPSVFIFPPSDEQLKSGTASVVCLLNNFYPREAKVQWKVDNALQSGNSQESVTEQDSKDSTYSLSSTLTLSKADYEKHKVYACEVTHQGLSSPVTKSFNRGEC
14 | 111 | 116 | 109 | 117 | 102 | GpH7-A5/GpH7-B3 variant I336_08L/GpL16-k0 (antibody, human IgG1, kappa, heterodimerized IgG1 (He Ab), mutation in one H chain only; also called He Ab) heavy 1: not shown heavy 2: not shown light: DIVMTQSPLSLPVTPGEPASISCQASESLVHSNRNTYLHWYLQKPGQSPQLLIYKVSNRFSGVPDRFSGSGSGTDFTLKISRVEAEDVGVYYCSQNTHVPPTFGQGTKVEIERTVAAPSVFIFPPSDEQLKSGTASVVCLLNNFYPREAKVQWKVDNALQSGNSQESVTEQDSKDSTYSLSSTLTLSKADYEKHKVYACEVTHQGLSSPVTKSFNRGEC
15 | 108 | 104 | 106 | 98.7 | 107 | GpH7-A5/GpH7-B3 variant I336_03V/GpL16-k0 (antibody, human IgG1, kappa, heterodimerized IgG1 (He Ab), mutation in one H chain only; also called He Ab) heavy 1: not shown heavy 2: not shown light: DIVMTQSPLSLPVTPGEPASISCQASESLVHSNRNTYLHWYLQKPGQSPQLLIYKVSNRFSGVPDRFSGSGSGTDFTLKISRVEAEDVGVYYCSQNTHVPPTFGQGTKVEIERTVAAPSVFIFPPSDEQLKSGTASVVCLLNNFYPREAKVQWKVDNALQSGNSQESVTEQDSKDSTYSLSSTLTLSKADYEKHKVYACEVTHQGLSSPVTKSFNRGEC

Source: US20260167699A1 (Chugai, published 2026)
